Legend:
[1] = biological target: Giardia lamblia virus strain GLV-HP capsid protein (Giardia lamblia virus (strain GLV-HP)); experiment: cryo-EM structure; single-particle analysis of purified virions plunge-frozen on holey carbon grids; 300-kV Titan Krios; icosahedral symmetry imposed; atomic models of CP-A and CP-B built into the maps
[2] = biological target: Giardia lamblia virus strain GLV-CAT capsid protein (Giardia lamblia virus (strain GLV-CAT)); experiment: as above

| Substance | stoichiometry N (CP dimers (CP-A and CP-B) in the capsid) [1] | stoichiometry N (CP dimers (CP-A and CP-B) in the capsid) [2] |
| --- | --- | --- |
| Giardia lamblia virus strain GLV-HP capsid protein (natural protein) | 60 |  |
| Giardia lamblia virus strain GLV-CAT capsid protein (natural protein) |  | 60 |
